Read-outs that look alike come from different tables or passages of the source.
B1: crRNA-1/lambda-activator + lambda ssDNA (T-strand) (mixed)
RNA: AAUUUCUACUGUUGUAGAUUGUAAAGAAACAGUAAGAUAAU
DNA: CATCGGGTTGAGTATTATCTTACTGTTTCTTTACATAAAC

Key:
wtCas12a [1] = target: T1, wtCas12a (Francisella novicida, UniProt A0Q7Q2 1-1300); experiment: Mg2+
wtCas12a [2] = target: T1, wtCas12a; experiment: Mg2+; remark: listed apart in the source

T1 sequence (A0Q7Q2 whole entry): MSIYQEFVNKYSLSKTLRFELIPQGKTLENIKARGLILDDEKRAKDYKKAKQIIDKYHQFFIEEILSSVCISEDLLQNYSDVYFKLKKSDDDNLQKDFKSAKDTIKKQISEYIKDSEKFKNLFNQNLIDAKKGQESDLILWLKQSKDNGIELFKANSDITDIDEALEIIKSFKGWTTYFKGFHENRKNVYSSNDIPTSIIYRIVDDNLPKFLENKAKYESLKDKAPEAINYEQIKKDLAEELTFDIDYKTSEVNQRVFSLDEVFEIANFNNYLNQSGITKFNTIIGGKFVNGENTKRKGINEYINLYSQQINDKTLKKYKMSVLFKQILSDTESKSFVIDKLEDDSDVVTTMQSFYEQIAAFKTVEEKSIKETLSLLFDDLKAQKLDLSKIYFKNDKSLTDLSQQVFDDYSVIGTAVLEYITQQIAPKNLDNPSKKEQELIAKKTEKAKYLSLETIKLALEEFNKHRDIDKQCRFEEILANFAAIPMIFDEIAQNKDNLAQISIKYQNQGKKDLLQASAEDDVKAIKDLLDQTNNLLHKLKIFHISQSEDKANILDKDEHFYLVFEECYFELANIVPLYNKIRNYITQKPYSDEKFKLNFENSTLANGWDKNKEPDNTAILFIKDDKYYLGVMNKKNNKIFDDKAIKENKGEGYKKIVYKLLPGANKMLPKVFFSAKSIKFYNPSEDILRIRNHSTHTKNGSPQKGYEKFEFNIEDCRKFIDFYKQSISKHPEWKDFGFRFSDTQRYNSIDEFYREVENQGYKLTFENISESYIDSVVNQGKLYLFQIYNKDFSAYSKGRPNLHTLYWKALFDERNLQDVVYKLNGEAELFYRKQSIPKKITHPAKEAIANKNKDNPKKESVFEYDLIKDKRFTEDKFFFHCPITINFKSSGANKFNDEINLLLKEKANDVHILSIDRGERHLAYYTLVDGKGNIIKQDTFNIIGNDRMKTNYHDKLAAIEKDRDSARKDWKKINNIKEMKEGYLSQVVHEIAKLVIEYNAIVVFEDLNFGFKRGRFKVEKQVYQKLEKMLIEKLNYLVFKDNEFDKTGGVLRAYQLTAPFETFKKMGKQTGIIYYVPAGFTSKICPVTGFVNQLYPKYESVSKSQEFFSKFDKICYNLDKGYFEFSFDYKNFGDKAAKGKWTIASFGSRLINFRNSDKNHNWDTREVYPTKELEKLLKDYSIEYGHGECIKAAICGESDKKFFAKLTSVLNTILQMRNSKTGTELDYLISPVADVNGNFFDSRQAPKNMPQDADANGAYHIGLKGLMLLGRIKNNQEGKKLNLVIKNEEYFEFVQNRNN

Binder | binding result (wtCas12a [1]) | binding result (wtCas12a [2])
AAUUUCUACUGUUGUAGAUUGUAAAGAAACAGUAAGAUAAU (mixed) [crRNA-1 + lambda ssDNA (T-strand), no activator] | no binding | –
B1 | – | binds
